Positions count from the first letter of the chain named.
T1: mouse SIRPA overexpressed on CHO cells (mouse, UniProt P97797 32-513)
T1 construct: also called CHO-muSIRPA
T1 sequence: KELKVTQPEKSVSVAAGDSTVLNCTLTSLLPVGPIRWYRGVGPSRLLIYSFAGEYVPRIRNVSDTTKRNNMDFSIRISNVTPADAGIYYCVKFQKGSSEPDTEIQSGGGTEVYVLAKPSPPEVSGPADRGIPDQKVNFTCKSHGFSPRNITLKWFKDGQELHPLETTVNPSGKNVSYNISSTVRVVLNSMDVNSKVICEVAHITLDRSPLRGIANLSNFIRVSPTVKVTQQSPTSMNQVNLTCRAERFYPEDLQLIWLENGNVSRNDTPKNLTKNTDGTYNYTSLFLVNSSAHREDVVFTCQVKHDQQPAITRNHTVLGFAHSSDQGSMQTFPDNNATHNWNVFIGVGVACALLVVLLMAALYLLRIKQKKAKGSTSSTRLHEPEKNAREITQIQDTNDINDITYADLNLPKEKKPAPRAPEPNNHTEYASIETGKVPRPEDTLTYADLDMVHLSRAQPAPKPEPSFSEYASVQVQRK

T2: Mouse SIRPA D1 Fc (mouse, UniProt P97797 32-150, limits assumed)
T2 sequence: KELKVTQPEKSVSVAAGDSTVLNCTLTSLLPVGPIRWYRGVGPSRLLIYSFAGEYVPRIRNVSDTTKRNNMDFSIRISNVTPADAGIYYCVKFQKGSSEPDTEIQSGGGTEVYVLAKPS

B1: SA-53 (antibody, V domains shown)
VH: QVQLQESGPGLVKPSQTLSLTCTVSGGSISSGGYYWSWIRQHPGKGLEWIGYIYYSGSTYYNPSLKSRVTISVDTSKNQFSLKLSSVTAADTAVYYCARGPLGAAGFDYWGQGTLVTVSS
VL: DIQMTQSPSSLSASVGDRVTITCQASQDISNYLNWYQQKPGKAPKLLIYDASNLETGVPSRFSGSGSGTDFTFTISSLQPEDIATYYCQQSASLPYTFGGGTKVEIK
notes: IgG
B2: SA-48 (antibody, V domains shown)
VH: QVQLVESGGGVVQPGRSLRLSCAASGFTFSSYGMHWVRQAPGKGLEWVAVISYDGSNKYYADSVKGRFTISRDNSKNTLYLQMNSLRAEDTAVYYCARGAPIETLGVYYYGMDVWGQGTTVTVSS
VL: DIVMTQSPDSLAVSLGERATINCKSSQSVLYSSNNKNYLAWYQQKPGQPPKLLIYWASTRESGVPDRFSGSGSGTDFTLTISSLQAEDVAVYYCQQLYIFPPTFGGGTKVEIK
notes: IgG
B3: SA-40 (antibody, V domains shown)
VH: QVQLVQSGAEVKKPGASVKVSCKASGYTFTSYYMHWVRQAPGQGLEWMGIINPSGGSTTYAQKFQGRVTMTRDTSTSTVYMELSSLRSEDTAVYYCAREGLASTGVSDYYYMDVWGKGTTVTVSS
VL: EIVLTQSPGTLSLSPGERATLSCRASQSVSSSYLAWYQQKPGQAPRLLIYGASSRATGIPDRFSGSGSGTDFTLTISRLEPEDFAVYYCQQLAHSPFTFGGGTKVEIK
notes: IgG
B4: SA-52 (antibody, V domains shown)
VH: QVQLVQSGAEVKKPGASVKVSCKASGYTFTNYGISWVRQAPGQGLEWMGWISAYNGNTNYAQKLQGRVTMTTDTSTSTAYMELRSLRSDDTAVYYCARGLWSEHIYWGQGTLVTVSS
VL: B3 VL with L4M, S54N, L92Y, A93V, H94D, S95L, F97L
notes: IgG
B5: SA-57 (antibody, V domains shown)
VH: QLQLQESGPGLVKPSETLSLTCTVSGGSISSSSYAWGWIRQPPGKGLEWIGSIYYSGSTYYNPSLKSRVTISVDTSKNQFSLKLSSVTAADTAVYYCARKGMDDAGMDVWGQGTTVTVSS
VL: EIVLTQSPATLSLSPGERATLSCRASQSVSSYLAWYQQKPGQAPRLLIYDASNRATGIPARFSGSGSGTDFTLTISSLEPEDFAVYYCQQDSAWPFTFGGGTKVEIK
notes: IgG
B6: SA-6 (antibody, V domains shown)
VH: EVQLVESGGGLVQPGRSLRLSCAASGFTFDDYAMHWVRQAPGKGLEWVSGITWNSGSIGYADSVKGRFTISRDNAKNSLYLQMNSLRAEDTALYYCAKEGRYGSGITTTWGQGTLVTVSS
VL: B5 VL with L4M, A51S, S92A, A93N, W94Y, F96Y
notes: IgG
B7: SA-45 (antibody, V domains shown)
VH: QVQLVQSGAEVKKPGASVKVSCKASGYTFTSYGISWVRQAPGQGLEWMGWISAYNGNTNYAQKLQGRVTMTTDTSTSTAYMELRSLRSDDTAVYYCARESGGTGAYGMDVWGQGTTVTVSS
VL: DIQMTQSPSSLSASVGDRVTITCRASQSVSSSYLAWYQQKPGQAPRLLIYGASSRATGIPDRFSGSGSGTDFTLTISRLEPEDFAVYYCQQYYDSITFGGGTKVEIK
notes: IgG
B8: SA-44 (antibody, V domains shown)
VH: EVQLVESGGGLVQPGGSLRLSCAASGFTFSSYSMNWVRQAPGKGLEWVSYISSSSSTIYYADSVKGRFTISRDNAKNSLYLQMNSLRAEDTAVYYCAREPFYSADRFDYWGQGTLVTVSS
VL: DIQMTQSPSSVSASVGDRVTITCRASQGIDSWLAWYQQKPGKAPKLLIYAASSLQSGVPSRFSGSGSGTDFTLTISSLQPEDFATYYCQQGVSLPYTFGGGTKVEIK
notes: IgG
B9: SA-50 (antibody, V domains shown)
VH: EVQLVESGGGLVQPGGSLRLSCAASGFTFSSYSMNWVRQAPGKGLEWVSYISSSSSTIYYADSVKGRFTISRDNAKNSLYLQMNSLRAEDTAVYYCARGGGGYSYSPYIYGMDVWGQGTTVTVSS
VL: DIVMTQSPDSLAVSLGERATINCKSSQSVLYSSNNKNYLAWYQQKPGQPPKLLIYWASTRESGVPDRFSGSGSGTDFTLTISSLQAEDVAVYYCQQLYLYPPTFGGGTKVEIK
notes: IgG
B10: SA-41 (antibody, V domains shown)
VH: QVQLQESGPGLVKPSETLSLTCTVSGGSISSYYWSWIRQPPGKGLEWIGSIYYSGSTNYNPSLKSRVTISVDTSKNQFSLKLSSVTAADTAVYYCAREGVAARGYYYGMDVWGQGTTVTVSS
VL: EIVMTQSPATLSVSPGERATLSCRASQSVSSSLAWYQQKPGQAPRLLIYGASTRATGIPARFSGSGSGTEFTLTISSLQSEDFAVYYCQQYITYPITFGGGTKVEIK
notes: IgG
B11: SA-42 (antibody, V domains shown)
VH: B10 VH
VL: B10 VL with S32N, Y49F, I92N, T93A
notes: IgG
B12: SA-7 (antibody, V domains shown)
VH: QVQLVESGGGVVQPGRSLRLSCAASGFTFSSYGMHWVRQAPGKGLEWVALIWYDGSNKYYADSVKGRFTISRDNSKNTLYLQMNSLRAEDTAVYYCAKEGSSYADGWPYGMDVWGQGTTVTVSS
VL: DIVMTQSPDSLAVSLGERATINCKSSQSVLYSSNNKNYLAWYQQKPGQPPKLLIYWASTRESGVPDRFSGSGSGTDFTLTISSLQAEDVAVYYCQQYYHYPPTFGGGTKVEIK
notes: IgG
B13: SA-13-69 (antibody, V domains shown)
VH: EVQLLESGGGLVQPGGSLRLSCAASGFTFTEYAMSWVRQAPGKGLEWVSAISGSGGSTYYADSVKARFTISRDNSKNTLYLQMNSLRAEDTAVYYCARDGTQWGPHFYWGQGTLVTVSS
VL: B8 VL with V11L, G28S, D30S, W32Y, A34N, V92Y, S93I, L94Y, Y96P
notes: IgG

molecular target: T1, mouse SIRPA overexpressed on CHO cells; assay: flow, CHO-muSIRPA;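 on relative MFI: antibody binding measured by flow cytometry: cells stained with 1 ug/ml test antibody for 1 h on ice, detected with PE-labelled secondary antibody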
Description: Initial characterization of anti-SIRPA antibodies of the present disclosure involved determining their ability to bind cell lines overexpressing human or mouse SIRPA. Cells were harvested, plated at 10⁶/ml in a 96 well plate, washed, and incubated in 100 ul PBS containing 1 ug/ml Mab for 1 hour in ice. Cells were then washed twice and incubated in 100 ul PBS containing 5 ug/ml PE-conjugated secondary antibody for 30 minutes in ice. Cells were washed twice in cold PBS and acquired on a BD FACS Canto. Data analysis and calculation of mean fluorescence intensity (MFI) values or % positive cells was performed with FlowJo® (TreeStar) software version 10.0.7.

Row | relative MFI [fold over background] | Binder
1 | 0.726 | B1
2 | 0.545 | B2
3 | 0.446 | B3
4 | 0.557 | B4
5 | 0.464 | B5
6 | 0.545 | B6
7 | 0.512 | B7
8 | 0.56 | B8
9 | 0.518 | B9
10 | 0.47 | B10
11 | 0.443 | B11
12 | 0.515 | B12

molecular target: T3, human SIRPβ1 Fc fusion antigen (human, UniProt O00241 30-371); assay: ForteBio IgG avid;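 further: ForteBio sensor-based avid binding of anti-SIRPA antibodies in IgG format, with the binding partner in solution at 100 nM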
T3 construct: not shown: human IgG1 Fc
T3 sequence (O00241 30-371 limits assumed): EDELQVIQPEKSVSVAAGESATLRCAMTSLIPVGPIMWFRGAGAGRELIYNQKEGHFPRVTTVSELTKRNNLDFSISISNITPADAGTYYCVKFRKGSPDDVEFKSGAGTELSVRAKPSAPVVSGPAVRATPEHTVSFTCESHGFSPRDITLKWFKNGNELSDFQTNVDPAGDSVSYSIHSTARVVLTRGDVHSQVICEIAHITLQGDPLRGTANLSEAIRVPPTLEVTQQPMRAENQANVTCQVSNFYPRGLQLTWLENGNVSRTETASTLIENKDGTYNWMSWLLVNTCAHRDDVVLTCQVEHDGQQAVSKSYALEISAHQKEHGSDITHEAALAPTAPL

Row | Kd [nM] | Binder
13 | 3.99 | B13

molecular target: T1, mouse SIRPA overexpressed on CHO cells; assay: flow, CHO-muSIRPA; remark: another data set of the same source;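 on relative MFI: antibody binding measured by flow cytometry: cells stained with 1 ug/ml test antibody for 1 h on ice, detected with PE-labelled secondary antibody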

Row | binding result | Binder
14 | no binding (tested: 1 ug/ml) | B1
15 | no binding (tested: 1 ug/ml) | B2
16 | no binding (tested: 1 ug/ml) | B3
17 | no binding (tested: 1 ug/ml) | B4
18 | no binding (tested: 1 ug/ml) | B5
19 | no binding (tested: 1 ug/ml) | B6
20 | no binding (tested: 1 ug/ml) | B7
21 | no binding (tested: 1 ug/ml) | B8
22 | no binding (tested: 1 ug/ml) | B9
23 | no binding (tested: 1 ug/ml) | B10
24 | no binding (tested: 1 ug/ml) | B11
25 | no binding (tested: 1 ug/ml) | B12

molecular target: T4, human SIRPA overexpressed on CHO cells (human, UniProt P78324 31-504); assay: flow, CHO-huSIRPA;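 further: Anti-SIRPA antibodies applied at 1 µg/mL for 1 h on ice, binding read by flow cytometry using a PE-labelled secondary antibody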
T4 construct: also called CHO-huSIRPA

Row | relative MFI [fold over background] | Binder
26 | 2.13 | B1
27 | 3.27 | B2
28 | 0.542 | B3
29 | 1.9 | B4
30 | 1.89 | B5
31 | 3.13 | B6
32 | 14.1 | B7
33 | 1.2 | B8
34 | 5.56 | B9
35 | 0.989 | B10
36 | 1.29 | B11
37 | 0.708 | B12

molecular target: Human SIRPb D1 Fc (human, UniProt O00241 30-148, limits assumed); assay: ForteBio IgG avid;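 further: antibody IgG captured on AHQ biosensors, then 100 nM Fc-fused SIRP antigen applied for 3 min, followed by 3 min buffer dissociation, kinetics fitted to a 1:1 model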
Sequence (O00241 30-148 limits assumed): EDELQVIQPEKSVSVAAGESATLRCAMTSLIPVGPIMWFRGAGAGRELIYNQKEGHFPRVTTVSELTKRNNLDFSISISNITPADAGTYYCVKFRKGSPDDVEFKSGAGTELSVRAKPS
Description: (§1) Briefly, ForteBio affinity measurements were performed by loading IgGs on-line onto AHQ sensors. Sensors were equilibrated off-line in assay buffer for 30 min and then monitored on-line for 60 seconds for baseline establishment. For avid binding measurement, sensors with loaded IgGs were exposed to 100 nM antigen (human SIRPA or SIRPβ1 Fc fusion) for 3 min, afterwards they were transferred to assay buffer for 3 min for off-rate measurement. Additional avid binding was determined by loading biotinylated SIRPA monomer on SA sensors and exposure to 100 nM IgG in solution. Monovalent binding measurements were obtained by loading human SIRPA or SIRPβ1 Fc fusion antigens to AHQ sensor and followed by exposure to 100 nM anti-SIRPA antibody Fab. Additional monovalent measurements were made by loading biotinylated human SIRPA or SIRPβ1 monomer to SA sensor followed by exposure to 100 nM Fab in solution. Kinetics data were fit using a 1:1 binding model in the data analysis software provided by ForteBio.

Row | binding result | Binder
38 | no binding (tested: 100 nM) | B1
39 | no binding (tested: 100 nM) | B2
40 | no binding (tested: 100 nM) | B3
41 | no binding (tested: 100 nM) | B4
42 | no binding (tested: 100 nM) | B5
43 | no binding (tested: 100 nM) | B6
44 | no binding (tested: 100 nM) | B7
45 | no binding (tested: 100 nM) | B8
46 | no binding (tested: 100 nM) | B9
47 | no binding (tested: 100 nM) | B10
48 | no binding (tested: 100 nM) | B11
49 | no binding (tested: 100 nM) | B12

molecular target: T2, Mouse SIRPA D1 Fc; assay: ForteBio IgG avid;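 further: antibody IgG captured on AHQ biosensors, then 100 nM Fc-fused SIRP antigen applied for 3 min, followed by 3 min buffer dissociation, kinetics fitted to a 1:1 model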
Description: as §1

Row | binding result | Binder
50 | no binding (tested: 100 nM) | B1
51 | no binding (tested: 100 nM) | B2
52 | no binding (tested: 100 nM) | B3
53 | no binding (tested: 100 nM) | B4
54 | no binding (tested: 100 nM) | B5
55 | no binding (tested: 100 nM) | B6
56 | no binding (tested: 100 nM) | B7
57 | no binding (tested: 100 nM) | B8
58 | no binding (tested: 100 nM) | B9
59 | no binding (tested: 100 nM) | B10
60 | no binding (tested: 100 nM) | B11
61 | no binding (tested: 100 nM) | B12
